Tests used:
Western blot of medium = details: glycan lost, control: untreated CHO-S cells
[1] = Western blot of culture medium; details: glycan lost; control: rat CBG
[2] = loss of cortisol-binding capacity after protease incubation; details: glycan lost; control: un-mutated CBG

B1: rat CBG: tunicamycin (protein)
parent chain: MSLALYTCLLWLCTSGLWTAQASTNESSNSHRGLAPTNVDFAFNLYQRLVALNPDKNTLISPVSISMALAMVSLGSAQTQSLQSLGFNLTETSEAEIHQSFQYLNYLLKQSDTGLEMNMGNAMFLLQKLKLKDSFLADVKQYYESEALAIDFEDWTKASQQINQHVKDKTQGKIEHVFSDLDSPASFILVNYIFLRGIWELPFSPENTREEDFYVNETSTVKVPMMVQSGSIGYFRDSVFPCQLIQMDYVGNGTAFFILPDQGQMDTVIAALSRDTIDRWGKLMTPRQVNLYIPKFSISDTYDLKDMLEDLNIKDLLTNQSDFSGNTKDVPLTLTMVHKAMLQLDEGNVLPNSTNGAPLHLRSEPLDIKFNKPFILLLFDKFTWSSLMMSQVVNPA
expression_or_secretion, other: % of untreated (Western blot of medium): decreases

B2: rat CBG: N230D (protein)
parent chain: MSLALYTCLLWLCTSGLWTAQASTNESSNSHRGLAPTNVDFAFNLYQRLVALNPDKNTLISPVSISMALAMVSLGSAQTQSLQSLGFNLTETSEAEIHQSFQYLNYLLKQSDTGLEMNMGNAMFLLQKLKLKDSFLADVKQYYESEALAIDFEDWTKASQQINQHVKDKTQGKIEHVFSDLDSPASFILVNYIFLRGIWELPFSPENTREEDFYVNETSTVKVPMMVQSGSIGYFRDSVFPCQLIQMDYVGNGTAFFILPDQGQMDTVIAALSRDTIDRWGKLMTPRQVNLYIPKFSISDTYDLKDMLEDLNIKDLLTNQSDFSGNTKDVPLTLTMVHKAMLQLDEGNVLPNSTNGAPLHLRSEPLDIKFNKPFILLLFDKFTWSSLMMSQVVNPA
expression_or_secretion [1]: no change

B3: human CBG (corticosteroid-binding globulin): tunicamycin (human CBG) (protein)
parent chain: MPLLLYTCLLWLPTSGLWTVQAMDPNAAYVNMSNHHRGLASANVDFAFSLYKHLVALSPKKNIFISPVSISMALAMLSLGTCGHTRAQLLQGLGFNLTERSETEIHQGFQHLHQLFAKSDTSLEMTMGNALFLDGSLELLESFSADIKHYYESEVLAMNFQDWATASRQINSYVKNKTQGKIVDLFSGLDSPAILVLVNYIFFKGTWTQPFDLASTREENFYVDETTVVKVPMMLQSSTISYLHDSELPCQLVQMNYVGNGTVFFILPDKGKMNTVIAALSRDTINRWSAGLTSSQVDLYIPKVTISGVYDLGDVLEEMGIADLFTNQANFSRITQDAQLKSSKVVHKAVLQLNEEGVDTAGSTGVTLNLTSKPIILRFNQPFIIMIFDHFTWSSLFLARVMNPV
expression_or_secretion, other: % of untreated (Western blot of medium; same construct): decreases

B4: human CBG (corticosteroid-binding globulin): N347Q (protein)
parent chain: MPLLLYTCLLWLPTSGLWTVQAMDPNAAYVNMSNHHRGLASANVDFAFSLYKHLVALSPKKNIFISPVSISMALAMLSLGTCGHTRAQLLQGLGFNLTERSETEIHQGFQHLHQLFAKSDTSLEMTMGNALFLDGSLELLESFSADIKHYYESEVLAMNFQDWATASRQINSYVKNKTQGKIVDLFSGLDSPAILVLVNYIFFKGTWTQPFDLASTREENFYVDETTVVKVPMMLQSSTISYLHDSELPCQLVQMNYVGNGTVFFILPDKGKMNTVIAALSRDTINRWSAGLTSSQVDLYIPKVTISGVYDLGDVLEEMGIADLFTNQANFSRITQDAQLKSSKVVHKAVLQLNEEGVDTAGSTGVTLNLTSKPIILRFNQPFIIMIFDHFTWSSLFLARVMNPV
other: protease susceptibility [2]: increases

B5: human CBG (corticosteroid-binding globulin): T349A (protein)
parent chain: MPLLLYTCLLWLPTSGLWTVQAMDPNAAYVNMSNHHRGLASANVDFAFSLYKHLVALSPKKNIFISPVSISMALAMLSLGTCGHTRAQLLQGLGFNLTERSETEIHQGFQHLHQLFAKSDTSLEMTMGNALFLDGSLELLESFSADIKHYYESEVLAMNFQDWATASRQINSYVKNKTQGKIVDLFSGLDSPAILVLVNYIFFKGTWTQPFDLASTREENFYVDETTVVKVPMMLQSSTISYLHDSELPCQLVQMNYVGNGTVFFILPDKGKMNTVIAALSRDTINRWSAGLTSSQVDLYIPKVTISGVYDLGDVLEEMGIADLFTNQANFSRITQDAQLKSSKVVHKAVLQLNEEGVDTAGSTGVTLNLTSKPIILRFNQPFIIMIFDHFTWSSLFLARVMNPV
other: protease susceptibility [2]: increases

B6: human CBG (corticosteroid-binding globulin): tunicamycin (CBG N238) (protein)
parent chain: MPLLLYTCLLWLPTSGLWTVQAMDPNAAYVNMSNHHRGLASANVDFAFSLYKHLVALSPKKNIFISPVSISMALAMLSLGTCGHTRAQLLQGLGFNLTERSETEIHQGFQHLHQLFAKSDTSLEMTMGNALFLDGSLELLESFSADIKHYYESEVLAMNFQDWATASRQINSYVKNKTQGKIVDLFSGLDSPAILVLVNYIFFKGTWTQPFDLASTREENFYVDETTVVKVPMMLQSSTISYLHDSELPCQLVQMNYVGNGTVFFILPDKGKMNTVIAALSRDTINRWSAGLTSSQVDLYIPKVTISGVYDLGDVLEEMGIADLFTNQANFSRITQDAQLKSSKVVHKAVLQLNEEGVDTAGSTGVTLNLTSKPIILRFNQPFIIMIFDHFTWSSLFLARVMNPV
expression_or_secretion, other: % of untreated (Western blot of medium; same construct): decreases

— PMC5793714, “Functional implications of corticosteroid-binding globulin N-glycosylation” (Journal of Molecular Endocrinology, 2017)
